Test results taken from publication PMC6351565, “Mechanism of IRSp53 inhibition by 14-3-3” (Nature Communications, 2019).
Where a chain is given by its changes, count along the chain named. Names may count otherwise. Where no end group is shown, it is not given here. [ ]: non-standard residue; d: D form. pT = C[C@@H](OP(=O)(O)O)[C@H](N)C(=O)O; pS = N[C@@H](COP(=O)(O)O)C(=O)O

Tests used:
Settings in all cases: both partners purified
2xFLAG-Eps8 = biological target: T1, 2xFLAG-Eps8 (human, UniProt Q12929 1-822); experiment: other fluorescence titration; intramolecular FRET sensor (fluorescein/rhodamine on C230 and C519 of IRSp53); Cdc42, Eps8 and/or 14-3-3θ titrated into the sensor, also back to back; 20 °C; 25 mM Tris-HCl pH 7.5, 150 mM NaCl, 1 mM MgCl2, 5% glycerol, 0.1 mM TCEP; observed Kd (Kobs) from the fits
T1 construct: Eps8, human, UniProt Q12929, full length; also called FLAG-tagged Eps8
T1 sequence (Q12929 whole entry): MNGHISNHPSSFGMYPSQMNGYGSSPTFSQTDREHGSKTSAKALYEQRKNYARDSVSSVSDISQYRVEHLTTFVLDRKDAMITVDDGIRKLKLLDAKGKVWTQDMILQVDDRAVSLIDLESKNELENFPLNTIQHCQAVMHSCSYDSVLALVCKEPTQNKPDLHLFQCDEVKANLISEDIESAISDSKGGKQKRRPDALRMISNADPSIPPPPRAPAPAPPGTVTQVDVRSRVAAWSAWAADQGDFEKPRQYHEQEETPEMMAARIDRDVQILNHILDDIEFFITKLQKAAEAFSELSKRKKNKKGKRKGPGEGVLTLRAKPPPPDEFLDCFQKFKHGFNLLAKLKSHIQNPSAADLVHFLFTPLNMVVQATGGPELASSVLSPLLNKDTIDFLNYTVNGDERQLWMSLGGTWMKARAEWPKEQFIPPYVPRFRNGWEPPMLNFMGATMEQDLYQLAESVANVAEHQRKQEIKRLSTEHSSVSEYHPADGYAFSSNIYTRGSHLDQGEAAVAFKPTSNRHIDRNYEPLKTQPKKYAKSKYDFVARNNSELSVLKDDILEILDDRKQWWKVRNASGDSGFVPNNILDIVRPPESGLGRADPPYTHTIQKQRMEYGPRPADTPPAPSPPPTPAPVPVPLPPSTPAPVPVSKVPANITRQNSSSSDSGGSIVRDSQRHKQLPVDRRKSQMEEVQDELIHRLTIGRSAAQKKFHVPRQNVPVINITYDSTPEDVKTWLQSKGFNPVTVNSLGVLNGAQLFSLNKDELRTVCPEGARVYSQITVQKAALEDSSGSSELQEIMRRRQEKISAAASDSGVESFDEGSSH

14-3-3θ [1] = biological target: T2, 14-3-3θ (human, UniProt P27348 1-245); experiment: ITC; peptide in the syringe (100 μM singly, 50 μM doubly phosphorylated) titrated into 10 μM 14-3-3θ in the cell; 20 °C; 20 mM HEPES pH 7.5, 150 mM NaCl, 1 mM MgCl2, 0.1 mM TCEP; single-site model
T2 construct: 14-3-3θ, human, UniProt P27348; also called 14-3-3 theta; 14-3-3τ
T2 sequence: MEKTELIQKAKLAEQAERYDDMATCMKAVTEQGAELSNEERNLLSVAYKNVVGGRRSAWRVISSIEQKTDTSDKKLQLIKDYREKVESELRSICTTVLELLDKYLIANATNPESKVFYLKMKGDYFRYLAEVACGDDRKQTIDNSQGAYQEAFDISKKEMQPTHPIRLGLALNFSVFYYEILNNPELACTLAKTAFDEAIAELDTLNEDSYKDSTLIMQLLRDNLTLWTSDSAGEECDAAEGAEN

[2] = biological target: T3, IRSp53-FLAG (wild type), natively phosphorylated (human (from the printed UniProt entry), UniProt Q9UQB8-4 1-521, phosphorylated in HEK293T cells at S325, T340, T360, S366 and a residue within 452SSST455, most likely S454 (mass spectrometry of the purified 14-3-3-binding-competent fraction)); experiment: pull-down; 14-3-3θ-affinity column: MBP-14-3-3θ bound to amylose resin; FLAG-eluted IRSp53-FLAG loaded; eluted with 200 μM Sites 2,3 peptide
T3 construct: also called pIRSp53; WT IRSp53-FLAG; source: HEK293T, transfected, in lysate; not shown: FLAG, C-terminal, kept
T3 sequence (looked up): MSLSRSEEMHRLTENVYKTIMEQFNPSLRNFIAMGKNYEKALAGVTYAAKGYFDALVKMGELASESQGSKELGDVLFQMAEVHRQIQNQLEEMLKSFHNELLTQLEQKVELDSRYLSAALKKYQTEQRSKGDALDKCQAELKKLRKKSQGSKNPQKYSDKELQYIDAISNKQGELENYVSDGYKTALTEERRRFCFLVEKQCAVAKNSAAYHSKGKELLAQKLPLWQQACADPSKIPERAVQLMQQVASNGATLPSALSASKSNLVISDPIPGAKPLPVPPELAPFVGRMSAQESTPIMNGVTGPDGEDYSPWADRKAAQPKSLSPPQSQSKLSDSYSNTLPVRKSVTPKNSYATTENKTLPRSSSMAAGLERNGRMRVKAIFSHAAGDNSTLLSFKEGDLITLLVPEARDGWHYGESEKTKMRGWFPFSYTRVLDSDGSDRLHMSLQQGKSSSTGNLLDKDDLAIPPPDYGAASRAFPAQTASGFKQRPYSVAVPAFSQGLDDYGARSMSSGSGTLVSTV

14-3-3θ [3] = biological target: T2, 14-3-3θ; experiment: SEC-MALS; 14-3-3θ (4 mg/mL) pre-incubated 2 h at 20 °C with Site 2 (two peptides per dimer) or Sites 2,4 (one peptide per dimer); TSKgel SuperSW2000

B1: pIRSp53FS (natural protein, human (from the printed UniProt entry), UniProt Q9UQB8-4 1-521, looked up)
chain: T3 sequence (looked up) with S519C
modifications: natively phosphorylated in HEK293T cells; fluorescein maleimide / rhodamine maleimide on C230 and C519
notes: IRSp53 (BAIAP2), isoform-4, UniProt Q9UQB8-4, full length, S519C; Expressed and purified as m4; also called IRSp53 FRET sensor; phosphorylated IRSp53 (mutant S519C)
- Kd (2xFLAG-Eps8): 0.042 µM

B2: Sites 2,3 peptide (pT340/pT360) (peptide)
peptide: Ac-DSYSN[pT]LPVRKSVTPKNSYATTENK[pT]LPRSSS-NH2
SMILES: CC(=O)N[C@@H](CC(=O)O)C(=O)N[C@@H](CO)C(=O)N[C@@H](Cc1ccc(O)cc1)C(=O)N[C@@H](CO)C(=O)N[C@@H](CC(N)=O)C(=O)N[C@H](C(=O)N[C@@H](CC(C)C)C(=O)N1CCC[C@H]1C(=O)N[C@H](C(=O)N[C@@H](CCCNC(=N)N)C(=O)N[C@@H](CCCCN)C(=O)N[C@@H](CO)C(=O)N[C@H](C(=O)N[C@H](C(=O)N1CCC[C@H]1C(=O)N[C@@H](CCCCN)C(=O)N[C@@H](CC(N)=O)C(=O)N[C@@H](CO)C(=O)N[C@@H](Cc1ccc(O)cc1)C(=O)N[C@@H](C)C(=O)N[C@H](C(=O)N[C@H](C(=O)N[C@@H](CCC(=O)O)C(=O)N[C@@H](CC(N)=O)C(=O)N[C@@H](CCCCN)C(=O)N[C@H](C(=O)N[C@@H](CC(C)C)C(=O)N1CCC[C@H]1C(=O)N[C@@H](CCCNC(=N)N)C(=O)N[C@@H](CO)C(=O)N[C@@H](CO)C(=O)N[C@@H](CO)C(N)=O)[C@@H](C)OP(=O)(O)O)[C@@H](C)O)[C@@H](C)O)[C@@H](C)O)C(C)C)C(C)C)[C@@H](C)OP(=O)(O)O
notes: IRSp53 stretch of 29-40 residues that holds T340 and T360; also called doubly-phosphorylated IRSp53 peptide Sites 2,3; source: synthetic peptide (Dr. Paul Leavis, Tufts University)
- Kd (14-3-3θ [1]): 0.045 µM
- stoichiometry N (14-3-3θ [1]): ~0.5 peptide per 14-3-3θ subunit (one peptide per 14-3-3θ dimer)

Binder: AQPKSL[pS]PPQSQSKLSDSYSN[pT]LPVRKS [Sites 1,2 peptide (pS325/pT340)]
- stoichiometry N (14-3-3θ [1]): ~1 peptide per 14-3-3θ subunit

Binder: Ac-QQGKSSSTGNLLD-NH2 (also: phosphoserine at S454, which serine of the chain is not given here) [Site 5 peptide (pS454)]
- Kd (14-3-3θ [1]): 12 µM
- stoichiometry N (14-3-3θ [1]): ~1 peptide per 14-3-3θ subunit (two peptides per 14-3-3θ dimer)

B3: Site 4 peptide (pS366) (peptide)
chain: Ac-TLPRSS[pS]MAAGLEK-NH2
SMILES: CSCC[C@H](NC(=O)[C@H](COP(=O)(O)O)NC(=O)[C@H](CO)NC(=O)[C@H](CO)NC(=O)[C@H](CCCNC(=N)N)NC(=O)[C@@H]1CCCN1C(=O)[C@H](CC(C)C)NC(=O)[C@@H](NC(C)=O)[C@@H](C)O)C(=O)N[C@@H](C)C(=O)N[C@@H](C)C(=O)NCC(=O)N[C@@H](CC(C)C)C(=O)N[C@@H](CCC(=O)O)C(=O)N[C@@H](CCCCN)C(N)=O
- stoichiometry N (14-3-3θ [1]): ~1 peptide per 14-3-3θ subunit (two peptides per 14-3-3θ dimer)

B4: Site 3 peptide (pT360) (peptide)
chain: Ac-ATTENK[pT]LPRSSS-NH2
SMILES: CC(=O)N[C@@H](C)C(=O)N[C@H](C(=O)N[C@H](C(=O)N[C@@H](CCC(=O)O)C(=O)N[C@@H](CC(N)=O)C(=O)N[C@@H](CCCCN)C(=O)N[C@H](C(=O)N[C@@H](CC(C)C)C(=O)N1CCC[C@H]1C(=O)N[C@@H](CCCNC(=N)N)C(=O)N[C@@H](CO)C(=O)N[C@@H](CO)C(=O)N[C@@H](CO)C(N)=O)[C@@H](C)OP(=O)(O)O)[C@@H](C)O)[C@@H](C)O
- stoichiometry N (14-3-3θ [1]): ~1 peptide per 14-3-3θ subunit (two peptides per 14-3-3θ dimer)

B5: MBP-14-3-3θ (natural protein, human, UniProt P27348 1-245, looked up)
chain: T2 sequence
notes: also called MBP-tagged 14-3-3θ; source: E. coli BL21(DE3), purified (amylose resin, SEC)
- binding result [2]: binds

B6: Site 2 peptide (pT340) (peptide)
chain: Ac-LSDSYSN[pT]LPVRKS-NH2
SMILES: CC(=O)N[C@@H](CC(C)C)C(=O)N[C@@H](CO)C(=O)N[C@@H](CC(=O)O)C(=O)N[C@@H](CO)C(=O)N[C@@H](Cc1ccc(O)cc1)C(=O)N[C@@H](CO)C(=O)N[C@@H](CC(N)=O)C(=O)N[C@H](C(=O)N[C@@H](CC(C)C)C(=O)N1CCC[C@H]1C(=O)N[C@H](C(=O)N[C@@H](CCCNC(=N)N)C(=O)N[C@@H](CCCCN)C(=O)N[C@@H](CO)C(N)=O)C(C)C)[C@@H](C)OP(=O)(O)O
- stoichiometry N (14-3-3θ [1]): ~1 peptide per 14-3-3θ subunit (two peptides per 14-3-3θ dimer)
- stoichiometry N (14-3-3θ [3]): 1 peptide per 14-3-3θ subunit

B7: Sites 2,4 peptide (pT340/pS366) (peptide)
peptide: Ac-DSYSN[pT]LPVRKSVTPKNSYATTENKTLPRSS[pS]MAAGLE-NH2
SMILES: CSCC[C@H](NC(=O)[C@H](COP(=O)(O)O)NC(=O)[C@H](CO)NC(=O)[C@H](CO)NC(=O)[C@H](CCCNC(=N)N)NC(=O)[C@@H]1CCCN1C(=O)[C@H](CC(C)C)NC(=O)[C@@H](NC(=O)[C@H](CCCCN)NC(=O)[C@H](CC(N)=O)NC(=O)[C@H](CCC(=O)O)NC(=O)[C@@H](NC(=O)[C@@H](NC(=O)[C@H](C)NC(=O)[C@H](Cc1ccc(O)cc1)NC(=O)[C@H](CO)NC(=O)[C@H](CC(N)=O)NC(=O)[C@H](CCCCN)NC(=O)[C@@H]1CCCN1C(=O)[C@@H](NC(=O)[C@@H](NC(=O)[C@H](CO)NC(=O)[C@H](CCCCN)NC(=O)[C@H](CCCNC(=N)N)NC(=O)[C@@H](NC(=O)[C@@H]1CCCN1C(=O)[C@H](CC(C)C)NC(=O)[C@@H](NC(=O)[C@H](CC(N)=O)NC(=O)[C@H](CO)NC(=O)[C@H](Cc1ccc(O)cc1)NC(=O)[C@H](CO)NC(=O)[C@H](CC(=O)O)NC(C)=O)[C@@H](C)OP(=O)(O)O)C(C)C)C(C)C)[C@@H](C)O)[C@@H](C)O)[C@@H](C)O)[C@@H](C)O)C(=O)N[C@@H](C)C(=O)N[C@@H](C)C(=O)NCC(=O)N[C@@H](CC(C)C)C(=O)N[C@@H](CCC(=O)O)C(N)=O
notes: IRSp53 stretch of 29-40 residues that holds T340 and S366; source: synthetic peptide (Dr. Paul Leavis, Tufts University)
- Kd (14-3-3θ [1]): 0.067 µM
- stoichiometry N (14-3-3θ [1]): ~0.5 peptide per 14-3-3θ subunit (one peptide per 14-3-3θ dimer)
- stoichiometry N (14-3-3θ [3]): 0.5 peptide per 14-3-3θ subunit
